Numbering of substitutions follows the chain as printed.

The values that follow come from patent publication US11584938B2, “Plant EPSPS mutant containing L195P and S247G mutations and encoding gene and use thereof” (GEVOTO LLC, priority 2017, dated 2023).

The data set relates to double knockout E. coli (EPSPS defective E. coli, EDCE). Description: growth of EPSPS defective E. coli transformed by the EPSPS gene in M9 culture media containing different glyphosate concentrations. The format is cell-based, E. coli DH5α. The conditions noted are these: for EPSPS enzyme activity: concluded from growth of defective E. coli at 0 mM glyphosate. The method in brief: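 EPSPS-defective E. coli DH5α (EPSPS and C-P lyase knocked out, EDCE) transformed with soybean, wheat or rice EPSPS genes in pADV5; positive colonies grown on M9 glucose minimal medium with varying glyphosate concentrations. Growth observed; wild-type EPSPS and single P101S mutants served as controls.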

Where [1] appears, read: culture media containing 0 mM glyphosate.
Where [2] appears, read: culture media containing 10 mM glyphosate.
[3] abbreviates: culture media containing 20 mM glyphosate.

B1: R3: rice EPSPS mutant, SEQ ID NO: 34, mutations L214(195)P and P116(101)S (protein)
chain: MASNAAAAAAKAEEIVLQPIREISGAVQLPGSKSLSNRILLLSALSEGTTVVDNLLNSEDVHYMLEALKALGLSVEADKVAKRAVVVGCGGKFPVEKDAKEEVQLFLGNAGTAMRSLTAAVTAAGGNATYVLDGVPRMRERPIGDLVVGLKQLGADVDCFLGTECPPVRVKGIGGLPGGKVKLSGSISSQYLSALLMAAPLALGDVEIEIIDKPISIPYVEMTLRLMERFGVKAEHSDSWDRFYIKGGQKYKSPGNAYVEGDASSASYFLAGAAITGGTVTVQGCGTTSLQGDVKFAEVLEMMGAKVTWTDTSVTVTGPPREPYGKKHLKAVDVNMNKMPDVAMTLAVVALFADGPTAIRDVASWRVKETERMVAIRTELTKLGASVEEGPDYCIITPPEKLNITAIDTYDDHRMAMAFSLAACADVPVTIRDPGCTRKTFPNYFDVLSTFVRN
For B1, the EPSPS enzyme activity result is on record as “normal EPSPS enzyme activity”. Under setting [1], the “growth of the E. coli transformed by the EPSPS” value (from here on “growth … by the EPSPS”) is “could grow”. Moreover, under setting [2], the “growth … by the EPSPS” value is “could grow” and the “growth of the transformed E. coli compared with E. coli transformed by the control EPSPS named in the value” is “superior to that of the E. coli transformed by R2”.

B2: R4: rice EPSPS mutant, SEQ ID NO: 36, mutation S267(247)G (protein)
chain: B1 chain with S116P, P214L, S267G
On to B2, for which the EPSPS enzyme activity entry is reported as “normal EPSPS enzyme activity”. For the same molecule, the “growth … by the EPSPS” value under setting [1] is reported as “could grow”. Further, under setting [2], the “growth … by the EPSPS” value is “could grow normally” and the “growth of the transformed E. coli compared with E. coli transformed by the control EPSPS named in the value” was “superior to that of the E. coli transformed by R1”. Further, under setting [3], the “growth … by the EPSPS” value was “grew obviously”.

B3: R6: rice EPSPS mutant, SEQ ID NO: 40, mutations S267(247)G, L214(195)P and P116(101)S (protein)
chain: B1 chain with S267G
Take B3: the EPSPS enzyme activity result is listed as “normal EPSPS enzyme activity”. For the same molecule, the “growth … by the EPSPS” value under setting [1] is listed as “could grow”. For the same molecule, under setting [3], the “growth … by the EPSPS” value was “could grow” and the “growth of the transformed E. coli compared with E. coli transformed by the control EPSPS named in the value” is listed as “superior to that of the E. coli transformed by R2”.

B4: R5: rice EPSPS mutant, SEQ ID NO: 38, mutations S267(247)G and P116(101)S (protein)
chain: B1 chain with P214L, S267G
Regarding B4, the EPSPS enzyme activity result is on record as “normal EPSPS enzyme activity”. In addition, the “growth … by the EPSPS” value under setting [1] is “could grow”. Further, under setting [3], the “growth … by the EPSPS” value is “could grow” and the “growth of the transformed E. coli compared with E. coli transformed by the control EPSPS named in the value” is “obviously superior to that of the E. coli transformed by R2”.
